# Measurements: the RNAGym collection of RNA variant scans (doi:10.7554/elife.80360)
# B1: HDV Ribozyme (parent)
# chain: GGCCGGCAUGGUCCCAGCCUCCUCGCUGGCGCCGGCUGGGCAACAUUCCGAGGGGACCGUCCCCUCGGUAAUGGCGAAUGGGACCCA
# Variants of: B1
# Assay: self-cleavage, relative activity (ratio to wild type); higher = more cleavage; co-transcriptional
row,Variant,self-cleavage
1,AGCCGGCAUGGUCCCAGCCUCCUCGCUGGCGCCGGCUGGGCAACAUUCCGAGGGGACCGUCCCCUCGGUAAUGGCGAAUGGGACCGA [G1A C86G],0.185
2,AACCGGCAUGGUCCCAGCCUCCUCGCUGGCGCCGGCUGGGCAACAUUCCGAGGGGACCGUCCCCUCGGUAAUGGCGAAUGGGACCCA [G1A G2A],0.457
3,AGCCGGCAUGGUCCCAGCCUCCUCGCUGGAGCCGGCUGGGCAACAUUCCGAGGGGACCGUCCCCUCGGUAAUGGCGAAUGGGACCCA [G1A C30A],0.0875
4,AGCCGGCAUGGUCCCAGCCUCCUCGCUGGCGCCGGCUGGGCAACAUUCCGAGGGGACCGUCCCCUGGGUAAUGGCGAAUGGGACCCA [G1A C66G],0.308
5,AGCCGGCAUGGUCCCAGCCUCCUCGCUGGCGCCGGCUGGGCAACACUCCGAGGGGACCGUCCCCUCGGUAAUGGCGAAUGGGACCCA [G1A U46C],0.208
6,AGCCGGCAUGGUCCCAGCCUCCUCGCUGGCGCCGGCUGGGCAACAUUCCGAGGGGACGGUCCCCUCGGUAAUGGCGAAUGGGACCCA [G1A C58G],0.0665
7,AGCCGGCAUGGUCCCAGCCUCCUCGCUGGCGCCGGCUGGGCAACAUUCCGAGGGGACUGUCCCCUCGGUAAUGGCGAAUGGGACCCA [G1A C58U],0.158
8,AGCCGGCAUGGUCCCAGCCUCCUCGCUGGCGCCGGCUGGGCAACAUUCCGAGGGGACCGUCCCCUCGGUAAUUGCGAAUGGGACCCA [G1A G73U],0.0545
9,AGCCGGCAUGGUCCCAGCCUCCUCGCUGGCGCCGGCUGGGCAACAUUCCGAGGGGACCGUCCCCUCGGUAAUGGCGAAUGGGACCCA [G1A],0.143
10,CGCCGGCAUGGUCCCAGCCUCCUCGCUGGCGCCGGCUGGGCAACAUUCCGAGGGGACCGUCCCCUCGGUAAUGGCGAAUGGGACCCA [G1C],0.179
11,AGCCGGCAUGGUCCCAGCGUCCUCGCUGGCGCCGGCUGGGCAACAUUCCGAGGGGACCGUCCCCUCGGUAAUGGCGAAUGGGACCCA [G1A C19G],0.0875
12,AGCCGGCAUGGUCCCAGCCUCCUCGCUGGCGCCUGCUGGGCAACAUUCCGAGGGGACCGUCCCCUCGGUAAUGGCGAAUGGGACCCA [G1A G34U],0.095
13,AGCCGGCAUGGUCCCAGCCUCCUCGCUGGCGCCGGCUGGGCAACAUUCCGAGGGGACCCUCCCCUCGGUAAUGGCGAAUGGGACCCA [G1A G59C],0.229
14,AGCCGGCAUGGUCCCAGCCUCCUCGCUGGCGCCGGCUGGGCAACAUUCCGAGGGGACCAUCCCCUCGGUAAUGGCGAAUGGGACCCA [G1A G59A],0.0573
15,AGCCGGCAUGGUCCCAGCCUCCUCGCUGGCGCCGGCUGGGCAACAUUCCGAGGGGACCUUCCCCUCGGUAAUGGCGAAUGGGACCCA [G1A G59U],0.214
16,AGCCGGCAUGGUCCCAGCCUCCUCGCUGGCGCCGGCUGGGCCACAUUCCGAGGGGACCGUCCCCUCGGUAAUGGCGAAUGGGACCCA [G1A A42C],0.0369
17,AGCCGGCAUGGUCCCAGCCUCCUCGCUGGCGCCGGCUGGGCUACAUUCCGAGGGGACCGUCCCCUCGGUAAUGGCGAAUGGGACCCA [G1A A42U],0.123
18,AGCCGGCAUGGUCCCAGCCUCCUCGCUGGCGCCGGCUGGGCAACUUUCCGAGGGGACCGUCCCCUCGGUAAUGGCGAAUGGGACCCA [G1A A45U],0.208
19,AGCCGGCAUGGUCCCAGCCUCCUCGCUGGCGCCGGCUGGGCAACAUUCCGAGGGGACCGUCCCCUCGUUAAUGGCGAAUGGGACCCA [G1A G68U],0.178
20,AGCCGGCAUGGUCCCAGCCUCCUCGCUGGCGCCGGCUGGGCAACAUUCCGAGGGGACCGUCCCCUCGGUACUGGCGAAUGGGACCCA [G1A A71C],0.145
21,AGCCGGCAUGGUCCCAGCCUCCUCGCUGGCGCCGGCUGGGCAACAUUCCGAGGGGACCGUCCCCUCGGUAUUGGCGAAUGGGACCCA [G1A A71U],0.256
22,AGCCGGCAUGGUCCCAGCCUCCUCGCUGGCGCCGGCUGGGCAACAUUCCGAGGGGACCGCCCCCUCGGUAAUGGCGAAUGGGACCCA [G1A U60C],0.166

row,Variant,self-cleavage
1,AGCCGGCAUGGUCCCAGCCUCCUCGCUGGCGCCGGCUGGGCAACAUUCCGAGGGGACCGUCCCGUCGGUAAUGGCGAAUGGGACCCA [G1A C64G],0.095
2,AGCCGGCAUGGUCCCAGCCUCCUCGCUGGCGCCGGCUGGGCAACAUUCCGAGGGGACCGUCCCCUCGGUAAUGGAGAAUGGGACCCA [G1A C75A],0.161
3,AGCCGGCAUGGUCCCAGCCUCCUCGCUGGCGCCGGCUGGGCAACAUUCCGAGGGGACCGUCCCCUCGGUAAUGGGGAAUGGGACCCA [G1A C75G],0.108
4,AGCCGGCAUGGUCCCAUCCUCCUCGCUGGCGCCGGCUGGGCAACAUUCCGAGGGGACCGUCCCCUCGGUAAUGGCGAAUGGGACCCA [G1A G17U],0.0449
5,AGCCGGCAUGGUCCCAGCCUCCUCGCUGGCGCCGGCUGGGCAACAUUCCGAGGGGACCGUCCCCACGGUAAUGGCGAAUGGGACCCA [G1A U65A],0.0692
6,AGCCGGCAUGGUCCCAGCCUCCUCGCUGGCGCCGGCUGGGCAACAUUACGAGGGGACCGUCCCCUCGGUAAUGGCGAAUGGGACCCA [G1A C48A],0
7,AGCCGGCAUGGUCCCAGCCUCCUCGCUGGCGCCGGCGGGGCAACAUUCCGAGGGGACCGUCCCCUCGGUAAUGGCGAAUGGGACCCA [G1A U37G],0.158
8,AGCCGGCAUGGUCCCAGCCUCCUCGCUGGCGCCGGCCGGGCAACAUUCCGAGGGGACCGUCCCCUCGGUAAUGGCGAAUGGGACCCA [G1A U37C],0.217
9,AGCCGGCAUGGUCCCAGCCUCCUCGCUGGCGCCGGCUUGGCAACAUUCCGAGGGGACCGUCCCCUCGGUAAUGGCGAAUGGGACCCA [G1A G38U],0.0845
10,AGCCGGCAUGGUCCCAGCCUCCUCGCUGGCGCCGGCUAGGCAACAUUCCGAGGGGACCGUCCCCUCGGUAAUGGCGAAUGGGACCCA [G1A G38A],0.0332
11,AGCCGGCAUGGUCCCAGCCUCCUCGCUGGCGCCGGCUGGGCAACAUUCCGAGUGGACCGUCCCCUCGGUAAUGGCGAAUGGGACCCA [G1A G53U],0.0386
12,AGCCGGCAUGGUCCCAGCCUCCUCGCUGGCGCCGGCUGGGCAACAUUCCGAGCGGACCGUCCCCUCGGUAAUGGCGAAUGGGACCCA [G1A G53C],0
13,AGCCGGCAUGGUCCCAGCCUCCUCGCUGGCGCCGGCUGGGCAACAUUCCGAGGGGACCGUCCCCUCGGUAAUGGCGAAUGGGACACA [G1A C85A],0.0852
14,AGCCGGCAUGGUCCCAGCCUCCUCGCUGGCGCCGGCUGGGCAAAAUUCCGAGGGGACCGUCCCCUCGGUAAUGGCGAAUGGGACCCA [G1A C44A],0.0426
15,AGCCGGCAUGGUCCCAGCCUCCUCGCUGGCGCCGGCUGGUCAACAUUCCGAGGGGACCGUCCCCUCGGUAAUGGCGAAUGGGACCCA [G1A G40U],0.0615
16,AGCCGGCAUGGUCCCAGCCUCCUCGCUGGCGCCGGCUGGACAACAUUCCGAGGGGACCGUCCCCUCGGUAAUGGCGAAUGGGACCCA [G1A G40A],0.119
17,AGCCGGCAUGGUCCCAGCCUCCUCGCUGGCGCCGGCUGGCCAACAUUCCGAGGGGACCGUCCCCUCGGUAAUGGCGAAUGGGACCCA [G1A G40C],0.0437
18,AGCCGGCAUGGUCCCAGGCUCCUCGCUGGCGCCGGCUGGGCAACAUUCCGAGGGGACCGUCCCCUCGGUAAUGGCGAAUGGGACCCA [G1A C18G],0
19,AGCCGGCAUGGUCCCAGUCUCCUCGCUGGCGCCGGCUGGGCAACAUUCCGAGGGGACCGUCCCCUCGGUAAUGGCGAAUGGGACCCA [G1A C18U],0.0475
20,AGCCGGCAUGGUCCCAGCCUCCUCGCUGGCGCCGGCUGUGCAACAUUCCGAGGGGACCGUCCCCUCGGUAAUGGCGAAUGGGACCCA [G1A G39U],0.135
21,AGCCGGCAUGGUCCCAGCCUCCUCGCUGGCGCCGCCUGGGCAACAUUCCGAGGGGACCGUCCCCUCGGUAAUGGCGAAUGGGACCCA [G1A G35C],0.0723
22,AGCCGGCAUGGUCCCAGCCUCCACGCUGGCGCCGGCUGGGCAACAUUCCGAGGGGACCGUCCCCUCGGUAAUGGCGAAUGGGACCCA [G1A U23A],0.217

row,Variant,self-cleavage
1,AGCCGGCAUGGUCCCAGCCUCCUCGCUGGCGCCGGCUGGGCAACAUUCCGCGGGGACCGUCCCCUCGGUAAUGGCGAAUGGGACCCA [G1A A51C],0.0831
2,AGCCGGCAUGGUCCCAGCCUCCUCGCUGGCGCCGGCUGGGCAACAUUCCGAGGGGACCGUCCCCUCUGUAAUGGCGAAUGGGACCCA [G1A G67U],0.297
3,AGCCGGCAUGGUCCCAGCCUCCUCGCUGGCGCCGGCUGGGCAACAUUCCGAGGGGACCGUCUCCUCGGUAAUGGCGAAUGGGACCCA [G1A C62U],0.0791
4,AGCGGGCAUGGUCCCAGCCUCCUCGCUGGCGCCGGCUGGGCAACAUUCCGAGGGGACCGUCCCCUCGGUAAUGGCGAAUGGGACCCA [G1A C4G],0.123
5,AGCUGGCAUGGUCCCAGCCUCCUCGCUGGCGCCGGCUGGGCAACAUUCCGAGGGGACCGUCCCCUCGGUAAUGGCGAAUGGGACCCA [G1A C4U],0.252
6,AGCCGGCAUGGUCCCAGCCUCCUCGCUGGCGCCGGCUGGGCAACAUUCCGAGGGGACCGUCCCCUCGGUAAUGGCGAAUUGGACCCA [G1A G80U],0.0133
7,AGCCGGCAUGGUCCCAGCCUCCUCGCUGGCGCCGGCUGGGCAACAUUCCGAGGGGACCGUCCGCUCGGUAAUGGCGAAUGGGACCCA [G1A C63G],0.249
8,CGCCGGCAUGGUCCCAGCCUCCUCGCUGGCGCCGGCUGGGCGACAUUCCGAGGGGACCGUCCCCUCGGUAAUGGCGAAUGGGACCCA [G1C A42G],0
9,CGCCGGCAUGGUCCCAGCCUCCUCGCUGGCGCCGGCUGGGCUACAUUCCGAGGGGACCGUCCCCUCGGUAAUGGCGAAUGGGACCCA [G1C A42U],0
10,AGCCGGUAUGGUCCCAGCCUCCUCGCUGGCGCCGGCUGGGCAACAUUCCGAGGGGACCGUCCCCUCGGUAAUGGCGAAUGGGACCCA [G1A C7U],0.0475
11,AGCCGGCGUGGUCCCAGCCUCCUCGCUGGCGCCGGCUGGGCAACAUUCCGAGGGGACCGUCCCCUCGGUAAUGGCGAAUGGGACCCA [G1A A8G],0.166
12,AGCCGGCAUGGUCCCAGCCUCCUCGCUGUCGCCGGCUGGGCAACAUUCCGAGGGGACCGUCCCCUCGGUAAUGGCGAAUGGGACCCA [G1A G29U],0.0639
13,AGCCGGCAUGGUCCCAGCCUCCUCGCUGGCGCCGGCUGGGCAACAUUCCGAGGGGACCGUCCCCUCGGUAAUGGCGAAUGGUACCCA [G1A G82U],0.095
14,AGCCGGCAUGGUCCCAGCCUCCUCGCUGGCGCCGGCUGGGCAACAUUCCGAGGGGACCGUCCCCUCGGUAAUGGCGAAUGGAACCCA [G1A G82A],0
15,AGCCGGCAUGGUCCCAGCCUCCUCGCUGGCGCCGGCUGGGCAACAUUCCGAGGGGACCGUCCCCUCGGAAAUGGCGAAUGGGACCCA [G1A U69A],0.145
16,AGCCUGCAUGGUCCCAGCCUCCUCGCUGGCGCCGGCUGGGCAACAUUCCGAGGGGACCGUCCCCUCGGUAAUGGCGAAUGGGACCCA [G1A G5U],0.101
17,AGCCAGCAUGGUCCCAGCCUCCUCGCUGGCGCCGGCUGGGCAACAUUCCGAGGGGACCGUCCCCUCGGUAAUGGCGAAUGGGACCCA [G1A G5A],0.0755
18,AGCCGGCAUGGUCCUAGCCUCCUCGCUGGCGCCGGCUGGGCAACAUUCCGAGGGGACCGUCCCCUCGGUAAUGGCGAAUGGGACCCA [G1A C15U],0.0665
19,AGCCGGCAUGGUCCAAGCCUCCUCGCUGGCGCCGGCUGGGCAACAUUCCGAGGGGACCGUCCCCUCGGUAAUGGCGAAUGGGACCCA [G1A C15A],0.0923
20,AGCCGGCAUGGUCCCAGCCUCGUCGCUGGCGCCGGCUGGGCAACAUUCCGAGGGGACCGUCCCCUCGGUAAUGGCGAAUGGGACCCA [G1A C22G],0.0978
